3 molecules from patent US7951906B2, “Compounds capable of interacting with a cell-surface fibroblast growth factor receptor” (Enkam Pharmaceuticals A/S, priority 2002, dated 2011) can be followed below.

Assay [1] deals with hippocampal neurons. As to the kind of experiment: Neurite outgrowth from hippocampal neurons. The class given is cell-based, rat. To be noted: for neurite outgrowth in dose-response study: neurite length versus concentration. The procedure: Dissociated neurons from embryonic rat hippocampus (embryonic day 19), prepared as described (Skladchikova et al., 1999), were grown on Permanox plastic (Nunc) for 24 h at a density of 6000 cells/cm^2, at 37° C., 5% CO2 in Neurobasal medium containing 20 mM Hepes, 100 U/ml penicillin, 100 μg/ml streptomycin, 0.4% BSA supplemented with B27 (Gibco BRL) and the below specified compounds. After 24 h, cells were fixed with paraformaldehyde, stained with Coomassie Brilliant Blue R250 and the length of neurites was measured as described (Skladchikova et al, 1999).

The target in assay [2] is interaction between the NCAM F3 modules 1, 2 and the FGFR modules 2, 3 (Rattus norvegicus, UniProt P13596). The assay is described as follows: biochemical.
Chain of interaction between the NCAM F3 modules 1, 2 and the FGFR modules 2, 3 (P13596 507-705): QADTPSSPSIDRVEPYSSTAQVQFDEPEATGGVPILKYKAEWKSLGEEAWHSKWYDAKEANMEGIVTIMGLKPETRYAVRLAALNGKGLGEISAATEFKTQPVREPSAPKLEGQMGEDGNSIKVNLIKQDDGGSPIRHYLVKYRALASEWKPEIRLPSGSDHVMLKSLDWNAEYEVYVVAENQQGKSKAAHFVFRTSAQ
Assay [3] concerns polyclonal antibody raised against the intact FGL-peptide. As to the kind of experiment: Competitive ELISA of immunoreactivity with antibody raised against FGL-peptide. To be noted: rabbit serum. The format is binding. An excerpt: Antibody specifically recognising an epitope comprising SEQ ID NO: 1 (FGL-peptide) were raised in rabbits according the standard procedure (Gill B M, Barbosa J A, Dinh T Q, Garrod S, O'Connor D T: Chromogranin B: isolation from pheochromocytoma, N-terminal sequence, tissue distribution and secretory vesicle processing. Regul Peptides 33:223-35, 1991). Synthetic FGL-peptide was coupled to a carrier protein, KLH (Keyhole Limpets Hemocyanin). The peptide was mixed with Freunds incomplete adjuvant and the mixture was injected into rabbits. 208 μg peptide was used per immunisation (per rabbit).
Antibodies (serum) were tested for specificity by competitive ELISA using a series FGL-peptide truncated variants according to the protocol described in R. J. Jenny, T. L. Messier, L. A. Ouellette, and W. R. Church, Methods Enzymol. 222, 400 (1993). 100% immunoreactivity was ob-served only with the intact FGL-peptide consisting of SEQ ID NO: 1.
Background: In an ELISA, binding on a coated surface is turned into a signal by an enzyme label.

Assay [4] deals with T1, FGFR1 Ig modules 2, 3 (Mus musculus, UniProt P16092).
T1 construct: amino acids 249-365 and 141-365 of FGFR (swissprot p16092), respectively; made in house; host or cells: Drosophila S2 cells
T1 sequence (P16092 141-365): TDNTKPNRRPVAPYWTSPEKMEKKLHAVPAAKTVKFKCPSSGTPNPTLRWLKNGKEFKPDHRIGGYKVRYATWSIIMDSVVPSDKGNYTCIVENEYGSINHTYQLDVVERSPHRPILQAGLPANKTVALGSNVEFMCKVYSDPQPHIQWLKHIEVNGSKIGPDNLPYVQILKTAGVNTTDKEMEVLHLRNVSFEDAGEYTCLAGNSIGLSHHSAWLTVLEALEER
As to the kind of experiment: SPR binding to immobilized FGFR Ig modules 2, 3. From the text: The NCAM F3 modules 1, 2 (without expression of exons a, AAG), and FGFR1 Ig modules 2, 3 were produced using rat NCAM cDNA and mouse FGFR1 (IIIC iso-form) cDNA. The F3 module 1 and the combined F3 modules 1, 2 consist of […] (SEQ ID NO:173) and amino acids 507-611 and 507-705 of NCAM (swissprot p13596), respectively. […] The FGFR Ig module 2 consists of […] […] The FGFR Ig module 3 and the combined Ig modules 2, 3 consist of […] (SEQ ID NO:174) and amino acids 249-365 and 141-365 of FGFR (swissprot p16092), respectively. […] All the proteins were purified by affinity chromatography using Ni2^+−NTA resin (Qiagen, USA) and/or ion exchange chromatography and gel filtration. ^15N-labelled F3 module 2 was produced as described (Thomsen et al., 1996). The NCAM Ig modules 1, 2 and 3 (RV and amino acids 20-308 of rat NCAM, swissprot p13596) was produced as described (Soroka et al., 2002).
The flow-rate was 5 μl/min. […] The FGFR Ig modules 2, 3 were immobilized on a sensor chip CM5 using amine coupling kit (Biosensor AB) as follows: 1) the two halves of the chip (designated Fc1 and Fc2) were activated by 20 μl activation solution; 2) the protein was immobilized on Fc1 using 12 μl 20 μg/ml protein in 10 mM sodium phosphate buffer pH 6.0; 3) Fc1 and Fc2 were blocked by 35 μl blocking solution. […] The resulting curve was used for analysis.
On the technique in general: SPR reads the build-up and loss of mass on a sensor chip optically.

Assay [5] deals with T2, rat FGFR1 (IIIC isoform) (Rattus norvegicus, UniProt Q04589).
T2 construct: expressed in transfected cells; host or cells: HEK293 cells, transient, pcDNA3.1(+)
T2 sequence (Q04589 22-822): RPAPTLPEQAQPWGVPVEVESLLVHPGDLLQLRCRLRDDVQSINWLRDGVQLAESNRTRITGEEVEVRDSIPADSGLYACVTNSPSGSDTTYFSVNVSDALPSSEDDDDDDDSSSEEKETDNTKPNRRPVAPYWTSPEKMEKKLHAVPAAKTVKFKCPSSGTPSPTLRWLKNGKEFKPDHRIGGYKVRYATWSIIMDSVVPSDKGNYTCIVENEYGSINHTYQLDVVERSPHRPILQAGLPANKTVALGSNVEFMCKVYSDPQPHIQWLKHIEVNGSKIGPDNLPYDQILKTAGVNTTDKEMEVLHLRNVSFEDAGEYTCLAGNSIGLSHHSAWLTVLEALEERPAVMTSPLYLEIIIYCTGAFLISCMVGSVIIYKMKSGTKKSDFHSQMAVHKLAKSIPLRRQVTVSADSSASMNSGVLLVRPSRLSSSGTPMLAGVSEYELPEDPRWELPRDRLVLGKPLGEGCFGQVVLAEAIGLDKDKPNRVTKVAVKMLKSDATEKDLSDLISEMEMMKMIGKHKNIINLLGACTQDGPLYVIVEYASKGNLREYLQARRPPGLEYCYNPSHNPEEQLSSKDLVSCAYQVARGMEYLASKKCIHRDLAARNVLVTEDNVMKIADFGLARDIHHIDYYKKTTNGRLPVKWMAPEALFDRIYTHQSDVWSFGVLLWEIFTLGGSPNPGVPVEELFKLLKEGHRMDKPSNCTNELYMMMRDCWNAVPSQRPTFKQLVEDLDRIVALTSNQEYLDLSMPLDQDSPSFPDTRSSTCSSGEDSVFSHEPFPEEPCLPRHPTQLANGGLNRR
As to the kind of experiment: FGFR1 phosphorylation, Assay 2 (HEK293 cells, His-tagged FGFR1). The format is cell-based. The settings on record: 20 min, 5 μM F3 module 2, 25 μM monomeric FG loop peptide. On the procedure:
Assay 2: The cDNA for the rat FGFR1 (IIIC isoform) was cloned by RT-PCR using RNA isolated from the rat PC12 cell line and inserted into a pcDNA3.1(+) plasmid (invitrogen), which allows expression of FGFR1 fused to the N-terminal of hexahistidine. ˜8×10^5 HEK293 cells were cultured for 24 h in 60 mm plates in full medium (DMEM 1965 supplemented with 10% FCS, 100 U/ml penicillin, 100 μg/ml streptomycin and […] Glutamax) and then transfected with 0.2 μg plasmid (with FGFR) using the LipofectAMIN PLUS™ reagent kit according to the manufacturer's instructions (Gibco BRL). Cells were grown for another 24 hrs in full medium, and then shifted to starvation media (DMEM 1965) overnight. FGFR transfected cells were stimulated for 20 min with the specified compounds, lysed in 8M urea, 1 mM orthovanadate (in PBS) and purified from the lysate via the His-tag as follows: The lysate was loaded on Ni^2+/NTA-sepharose (Qiagen), washed with lysis buffer plus 10 mM imidazole, and the FGFR was eluted with lysis buffer plus 250 mM imidazole. The purified FGFR was analysed by immunoblotting using anti-pentahis (Qiagen) or anti-phosphotyrosine (PY20, Transduction Laboratories) antibodies. The bands were visualised by chemilumiscense and the band density was measured using a GeneGnome apparatus (SynGene).

Assay [6] concerns the target T3, FGFR Ig module 2 (Mus musculus, UniProt P16092).
T3 sequence (P16092 140-251): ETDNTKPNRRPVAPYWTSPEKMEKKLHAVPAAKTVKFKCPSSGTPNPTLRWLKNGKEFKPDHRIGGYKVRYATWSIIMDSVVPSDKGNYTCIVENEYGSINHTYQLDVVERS
The assay is described as follows: 15N-HSQC NMR chemical shift changes of NCAM F3 module 2 with FGFR Ig module 2. The class given is binding. The settings on record: 50 μM 15N-labeled F3 module 2, 1 mM FGFR Ig module 2. From the text:
The NCAM F3 modules 1, 2 (without expression of exons a, AAG), and FGFR1 Ig modules 2, 3 were produced using rat NCAM cDNA and mouse FGFR1 (IIIC iso-form) cDNA. The F3 module 1 and the combined F3 modules 1, 2 consist of […] (SEQ ID NO:173) and amino acids 507-611 and 507-705 of NCAM (swissprot p13596), respectively. […] The FGFR Ig module 2 consists of […] […] The FGFR Ig module 3 and the combined Ig modules 2, 3 consist of […] (SEQ ID NO:174) and amino acids 249-365 and 141-365 of FGFR (swissprot p16092), respectively. […]
The following samples were used for the structure determination of the NCAM F3 module 2: 2 mM module in H2O or D2O and 1 mM ^15N-labelled module in H2O. […] The following NMR spectra were recorded and used for assignment: TOCSY in H2O or D2O (45 and 70 ms mixing time), NOESY in H2O or D2O (80 and 200 ms mixing time), DQFCOSY, ^15N-HSQC, ^15N-TOCSY-HSQC (70 ms mixing time), and ^15N-NOESY-HSQC (125 ms mixing time) (Bodenhausen and Ruben, 1980; Braunsweiler and Ernst, 1983; Kumar et al., 1981; Piantini et al., 1982; Zhang et al., 1994). […] All spectra were recorded at 298 K. The assignment of the ^1H and ^15N resonances were performed using the program PRONTO (Kjaer et al., 1994). […]

Assay [7] has as its target T4, human FGFR1 (Homo sapiens, UniProt P11362).
T4 construct: expressed in transfected cells; host or cells: TREX-293 cells (Invitrogen), Flp-In system
The assay is described as follows: FGFR1 phosphorylation, Assay 1 (TREX-293 cells, StrepII-tagged FGFR1). The format is cell-based. To be noted: 20 min, 5 μM F3 module, 2.5 μM dendrimeric FG loop peptide. On the procedure:
Assay 1: TREX-293 cells (Invitrogen) were stably transfected with human FGFR1 having a C-terminal StrepII-tag (IBA biotech), using the Flp-In system (Invitrogen). For the study of phosphorylation: ˜2×10^7 cells were starved overnight before stimulation for 20 min with the specified compounds. Cells were lysed in PBS with 1% NP-40 and phosphatase inhibitors cocktail set II (Calbiochem). The cleared cell lysates were incubated with 50 μl agarose-coupled anti-phosphotyrosine antibodies (4G10-AC, Upstate Biotechnologies) for 3 hrs at 4° C. Care was taken to calibrate the amount of cells employed, so that considerable increases in phosphorylated FGFR could be detected. The bound protein was washed, eluted using 150 mM phenyl phosphate (Sigma), precipitated by 12% trichloroacetic acid, washed in cold acetone and dissolved in SDS-PAGE sample buffer. Immunoblotting was performed using antibodies against the recombinant StrepII-tag (IBA biotech). For immunoprecipitation: ˜1×10^7 cells were transiently transfected with the 180 kDa NCAM isoform or a control vector. Cells were incubated for 24 h and then starved overnight. After lysis, FGFR was purified on a StrepTactin Minicolumn (IBA Biotech) according to the manufacturer's instructions, and analyzed by immunoblotting with polyclonal antibodies against human NCAM.

T4 sequence (P11362 22-822): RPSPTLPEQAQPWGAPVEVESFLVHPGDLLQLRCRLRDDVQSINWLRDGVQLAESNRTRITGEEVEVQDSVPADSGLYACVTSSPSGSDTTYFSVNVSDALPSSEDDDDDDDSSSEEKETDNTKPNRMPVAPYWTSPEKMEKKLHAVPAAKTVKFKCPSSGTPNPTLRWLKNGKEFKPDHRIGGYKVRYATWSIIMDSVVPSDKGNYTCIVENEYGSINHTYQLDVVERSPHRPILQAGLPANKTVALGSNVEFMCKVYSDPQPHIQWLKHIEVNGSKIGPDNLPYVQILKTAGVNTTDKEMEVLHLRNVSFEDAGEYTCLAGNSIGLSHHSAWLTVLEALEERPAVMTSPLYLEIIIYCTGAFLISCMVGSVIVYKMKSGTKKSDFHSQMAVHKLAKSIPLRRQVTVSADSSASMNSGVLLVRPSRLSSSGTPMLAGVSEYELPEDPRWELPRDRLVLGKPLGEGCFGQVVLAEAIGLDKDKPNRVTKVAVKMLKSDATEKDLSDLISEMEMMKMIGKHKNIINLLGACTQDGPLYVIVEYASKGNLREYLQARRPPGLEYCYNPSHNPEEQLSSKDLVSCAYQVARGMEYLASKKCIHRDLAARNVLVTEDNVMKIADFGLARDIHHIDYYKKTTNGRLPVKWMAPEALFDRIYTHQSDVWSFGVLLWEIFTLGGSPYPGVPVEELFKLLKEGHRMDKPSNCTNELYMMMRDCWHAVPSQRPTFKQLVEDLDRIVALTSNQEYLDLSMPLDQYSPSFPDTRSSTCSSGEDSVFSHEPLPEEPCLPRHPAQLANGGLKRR

Regarding `Nc1ncnc2c1ncn2[C@@H]1O[C@H](COP(=O)(O)OP(=O)(O)OP(=O)(O)O)[C@@H](O)[C@H]1O` [ATP, adenosine triphosphate, reference compound], in assay [1] (5 μM F3 module, ATP or AMP-PCP 0.4, 1.0 mM), the “inhibition of the neuritogenic effect induced by the F3 module 2” value was “substantially reduced”. Moreover, the “inhibition of the neuritogenic effect induced by the FG loop peptide” value in assay [1] (50 μM peptide, ATP or AMP-PCP 0.4, 1.0 mM) is “completely inhibited”. In addition, the Ki in assay [2] was 370 ± 50 µM.

Molecule “FG loop peptide: peptide corresponding to residues E^72-A^86 of the NCAM F3 module 2 (EVYVVAENQQGKSKA; NCAM Fn III, 2 [Swiss-Prot P13591] FGFR binding motif)” yielded an immunoreactivity in assay [3] of 100%. Also, in assay [4], the “binding to the immobilized FGFR modules” value was “cannot be detected”. Besides, the “increase of FGFR phosphorylation compared to control cells” value in assay [5] is on record as ~100%. The “neurite outgrowth in dose-response study” value in assay [1] (hippocampal neurons) was “induced neurite outgrowth with a bell-shaped curve”.

B1: NCAM F3 module 2: recombinant protein: AG and amino acids 612-705 of rat NCAM (swissprot p13596) (protein)
chain: AGPSAPKLEGQMGEDGNSIKVNLIKQDDGGSPIRHYLVKYRALASEWKPEIRLPSGSDHVMLKSLDWNAEYEVYVVAENQQGKSKAAHFVFRTSAQ
Take B1: the “changes of the chemical shifts in the presence of the Ig module 2” value in assay [6] is recorded as “No significant changes”. The “increase of FGFR phosphorylation compared to control cells” value in assay [5] is on record as “approx. 150%”. In assay [7], the “FGFR phosphorylation compared to the non-stimulated cells” value is listed as “substantially increase”. Further, the “stimulation of neurite outgrowth / length of neurites” value in assay [1] (hippocampal neurons, 24 h, 5 μM F3 module 2) is reported as “substantially increased”. For the same molecule, the “neurite outgrowth in dose-response study” value in assay [1] (hippocampal neurons) is listed as “induced neurite outgrowth with a bell-shaped curve”.

A word on the Ki: it is a measure of affinity in units of concentration, obtained from inhibition or displacement. Lower therefore signals a stronger hold on the target.
